Laboratory results: patent US20250115680A1 (PROFOUNDBIO US, published 2025)
Blank lines part the entries; values can stand above or below the binder they belong to.

Columns and labels:
[1] = biological target: T1, human PTK7 on the surface of PTK7-expressing tumor cell lines (human, UniProt Q13308 31-1070); experiment: cell-based or functional assay
T1 sequence (looked up): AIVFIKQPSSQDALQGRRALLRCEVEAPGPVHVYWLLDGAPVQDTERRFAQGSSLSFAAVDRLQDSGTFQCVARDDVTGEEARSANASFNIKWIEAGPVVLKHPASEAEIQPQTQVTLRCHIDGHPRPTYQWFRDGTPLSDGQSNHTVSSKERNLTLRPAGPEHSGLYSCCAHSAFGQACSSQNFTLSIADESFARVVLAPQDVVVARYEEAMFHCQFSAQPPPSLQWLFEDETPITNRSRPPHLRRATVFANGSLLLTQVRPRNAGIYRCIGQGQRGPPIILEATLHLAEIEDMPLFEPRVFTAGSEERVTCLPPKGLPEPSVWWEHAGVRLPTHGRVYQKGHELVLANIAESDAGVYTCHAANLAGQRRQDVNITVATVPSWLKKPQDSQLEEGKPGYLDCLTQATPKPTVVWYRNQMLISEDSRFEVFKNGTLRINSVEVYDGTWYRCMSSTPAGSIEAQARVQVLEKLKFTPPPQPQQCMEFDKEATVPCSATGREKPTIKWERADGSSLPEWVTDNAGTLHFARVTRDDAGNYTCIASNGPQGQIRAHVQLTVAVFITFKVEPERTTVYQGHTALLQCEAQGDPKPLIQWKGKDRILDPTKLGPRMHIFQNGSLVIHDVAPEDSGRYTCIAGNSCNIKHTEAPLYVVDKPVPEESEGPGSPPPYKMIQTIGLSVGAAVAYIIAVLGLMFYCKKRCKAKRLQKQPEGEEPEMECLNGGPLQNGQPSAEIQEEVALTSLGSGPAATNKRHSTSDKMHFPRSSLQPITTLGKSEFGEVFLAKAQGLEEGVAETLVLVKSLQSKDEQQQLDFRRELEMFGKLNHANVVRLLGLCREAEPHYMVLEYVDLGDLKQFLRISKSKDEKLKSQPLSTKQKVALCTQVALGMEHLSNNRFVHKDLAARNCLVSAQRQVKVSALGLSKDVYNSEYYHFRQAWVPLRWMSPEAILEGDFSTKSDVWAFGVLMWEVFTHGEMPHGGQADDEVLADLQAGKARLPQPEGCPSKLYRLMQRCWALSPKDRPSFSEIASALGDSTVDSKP

[2] = biological target: T2, human PTK7 extra-cellular domain (ECD) linked to His tag (human, UniProt Q13308 31-704); experiment: ELISA screening of hybridoma supernatants on human PTK7-his
T2 construct: extracellular domain; also called hPTK7-his; human PTK7-his protein; not shown: His tag
T2 sequence (looked up): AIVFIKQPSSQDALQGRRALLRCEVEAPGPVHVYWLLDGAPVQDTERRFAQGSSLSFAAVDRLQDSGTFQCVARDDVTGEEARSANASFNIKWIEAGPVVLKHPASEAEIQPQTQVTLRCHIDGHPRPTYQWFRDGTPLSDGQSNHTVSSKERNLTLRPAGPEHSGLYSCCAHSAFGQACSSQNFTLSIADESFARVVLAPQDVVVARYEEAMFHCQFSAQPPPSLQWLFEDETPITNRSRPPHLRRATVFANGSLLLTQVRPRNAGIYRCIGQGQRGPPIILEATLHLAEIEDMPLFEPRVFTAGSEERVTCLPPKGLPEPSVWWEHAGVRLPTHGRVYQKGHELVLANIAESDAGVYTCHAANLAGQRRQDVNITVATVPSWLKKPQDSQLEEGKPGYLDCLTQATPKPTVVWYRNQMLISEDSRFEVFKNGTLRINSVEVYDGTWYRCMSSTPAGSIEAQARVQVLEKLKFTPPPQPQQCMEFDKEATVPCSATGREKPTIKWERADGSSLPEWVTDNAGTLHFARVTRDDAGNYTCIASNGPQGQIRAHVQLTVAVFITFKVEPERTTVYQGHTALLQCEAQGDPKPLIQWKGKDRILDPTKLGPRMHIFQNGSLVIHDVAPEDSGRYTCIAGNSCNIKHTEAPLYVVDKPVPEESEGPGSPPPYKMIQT
Description: The cells were resuspended with an appropriate amount of electroporation buffer to ensure the cell concentration of about 2×10⁷ cells/mL. The cell suspension was added to a 9 mL electroporation tank for fusion. After fusion, the cell suspension was transferred to 20 mL RPMI 1640 complete medium containing 20% FBS and then left at room temperature for 20 min. The fused cells were resuspended with RPMI 1640 medium containing 1×HAT, 1×BIOMYC3, and 20% FBS. The cell suspension was added to several 96-well cell culture plates at 100 ul/well to ensure that the cell volume per well was about 5×10⁴ cells/well, and the plates were placed in a 37° C. cell incubator. After 7 days, additional 100 μL of RPMI 1640 complete medium containing 20% FBS, 1×HAT, and 1×BIOMYC-3 was added to each well. After 10 days, the cell culture supernatants from hybridoma parent clones were collected and used for screening by binding to human and cynomolgus monkey PTK7-his protein by ELISA.

[3] = biological target: T1, human PTK7 on the surface of …; experiment: flow cytometry on MDA-MB-468 cells

B1: PRO1107 (2C8-LD343 (8)) (other)
VH: QIQLVQSGAEVKKPGASVKVSCKASGYTFTTYGMSWVRQAPGQGLEWMGWINTHSGVPTYVDEFKGRVTMTLDTSTSTAYMELSSLRSEDTAVYYCARSPFDYGSRGAWFVYWGQGTTVTVSS
VL: DVVMTQSPDSLAVSLGERATINCRSSQSIVHNSGDTYLEWYQQKPGQPPKLLIYKVSNRFPGVPDRFSGSGSGTDFTLTISSLQAEDLAVYYCFQGSHVPWTFGGGTKVEIK
modifications: drug-linker LD343 (MMAE payload) coupled to cysteines of the TCEP-reduced antibody; DAR 7.5 by LC-MS; the chain carrying each drug is not stated
IC50 of in vitro cytotoxicity (Cell-titre Glo, 96 h), Detroit 562 cells [1]: 8200 pM | IC50 of in vitro cytotoxicity (Cell-titre Glo, 96 h), MDA-MB-468 cells [1]: 0.14 pM | IC50 of in vitro cytotoxicity (Cell-titre Glo, 96 h), OVCAR-3 cells [1]: 1.1 pM | IC50 of in vitro cytotoxicity (Cell-titre Glo, 96 h), PA-1 cells [1]: 8 pM | IC50 of in vitro cytotoxicity (Cell-titre Glo, 96 h), SNG-M cells [1]: 20 pM | IC50 of in vitro cytotoxicity (Cell-titre Glo, 96 h), SW780 cells [1]: 27400 pM

B2: murine antibody m2C5 (antibody, V domains shown)
VH: EVQLLSSGPELVTPGASVKISCKASGYTFTDYYINWLKQSHGKSLEWIGDINPNSGGPVYNQKFMAKATLTVDKTSNTAYMELRSLTSEDSAVYYCARGDYYGSNYNYWGQGTTLTVSS
VL: DILLTQSPAILSVSPGERVSFSCRASQNIGTSIHWYQQRTNGSPRLLIKFASESISGIPSRFSGSGSGTDFALTINSVESEDIADYYCQQSNNWPYTFGGGTKLEIK
notes: Mouse hybridoma clone, tested as culture supernatant
binding result [2]: binds | binding result [3]: binds

Results, then the binder that gave them:

binding result [2]: binds | binding result [3]: binds
B3: murine antibody m2C8 (antibody, V domains shown)
VH: QIQLVQSGPELKKPGETVKISCKASGYTFTTYGMSWVKQAPGKGLKWMGWINTHSGVPTYVDEFKGRSAFSLETSASTAYLQINNLKNEDTATYFCARSPFDYGSRGAWFVYWGQGTLVTVSS
VL: DVLMTQTPLSLPVSLGDQASISCRSSQSIVHNNGDTYLEWYLQKPGQSPKLLIYKVSNRFPGVPDRFSGSGSGTDFTLKISRVEAEDLGLYYCFQGSHVPWTFGGGTKLEIK
notes: as for B2

binding result [2]: binds | binding result [3]: binds
B4: murine antibody m13C4 (antibody, V domains shown)
VH: EVKLVESGGGLVKPGGSLKLSCAASGFAFSTYDMFWFRQTPEKRLEWVATISSGGGYTYYPGSVKGRFTISRDNARNTLYLQMSSLRSEDTALYYCVRPLLRDSYFYFDVWGAGTTVTVSS
VL: DIVMTQSPAIMSTSPGEKVTMTCRASSSVSSSYLHWYQQKSGASPKLWIFRTSNLASGVPARFSGSGSGTSYSLTISSVEAEDAATYYCQQYSGYPLTFGAGTKLELK
notes: as for B2
